Test results from patent US20220323561A1 (ENTEROME S A, published 2022).

Assays:
[1] = biological target: T1, HLA-A*0201 molecule expressed on human T2 cells (human); test: T2 cells (HLA-A*0201), peptide at 0.1 µM, anti-HLA-A2 flow cytometry
T1 construct: also called HLA-A2
Procedure: (§1) T2 cells (5.104 cells per well) are incubated with decreasing concentrations of peptides from 100 μM to 0.1 μM (4 points: 100 μM, 10 μM, 1 μM, 0.1 μM) in serum-free medium (TexMacs) supplemented with […] of β2 Microglobulin at 37° C. for 16 hours. Cells are then washed two times and marked with the anti-HLA-A2 antibody coupled to PE (clone BB7.2, BD Pharmagen).
(§2) The relative affinity is then determined as follows: […]

[2] = biological target: T1, HLA-A*0201 molecule expressed on human …; test: T2 cells (HLA-A*0201), peptide titration, anti-HLA-A2 flow cytometry
Procedure: as §1, §2

[3] = biological target: T1, HLA-A*0201 molecule expressed on human …; test: T2 cells (HLA-A*0201), peptide at 100 µM, anti-HLA-A2 flow cytometry
Procedure: as §1, §2

[4] = biological target: T1, HLA-A*0201 molecule expressed on human …; test: T2 cells (HLA-A*0201), peptide at 10 µM, anti-HLA-A2 flow cytometry
Procedure: as §1, §2

[5] = biological target: T1, HLA-A*0201 molecule expressed on human …; test: T2 cells (HLA-A*0201), peptide at 1 µM, anti-HLA-A2 flow cytometry
Procedure: as §1, §2

[6] = biological target: T1, HLA-A*0201 molecule expressed on human …; test: T2 cells (HLA-A*0201), anti-HLA-A2 flow cytometry

Binder | mean relative fluorescence intensity (HIV peptide = 100) [1] | concentration of peptide that induces 20% of HLA-A2 expression [2] [µM] | in vitro binding affinity (relative to HIV pol reference peptide) [2] | mean relative fluorescence intensity (HIV peptide = 100) [3] | mean relative fluorescence intensity (HIV peptide = 100) [4] | mean relative fluorescence intensity (HIV peptide = 100) [5] | binding result [6]
SLVGILHII [CD19-B11] | 0 % of HIV pol 589-597 at 100 µM | 5.97 | 0.8 ratio to HIV pol 589-597 | 108 % of HIV pol 589-597 at 100 µM | 30.5 % of HIV pol 589-597 at 100 µM | 5.2 % of HIV pol 589-597 at 100 µM | 
GLAFVPLQI [CD37-H1] | 2 % of HIV pol 589-597 at 100 µM | 7.35 | 17.5 ratio to HIV pol 589-597 | 153 % of HIV pol 589-597 at 100 µM | 27 % of HIV pol 589-597 at 100 µM | 0 % of HIV pol 589-597 at 100 µM | 
AMNSLSLYI [MS4A1-B4] | 0.5 % of HIV pol 589-597 at 100 µM | 12.3 | 2.1 ratio to HIV pol 589-597 | 115 % of HIV pol 589-597 at 100 µM | 13.1 % of HIV pol 589-597 at 100 µM | 1.9 % of HIV pol 589-597 at 100 µM | 
LLFGAPALL (also called TNFRSF13-H1) [TNFRSF13C-H1] | 0 % of HIV pol 589-597 at 100 µM | 11.8 | 3 ratio to HIV pol 589-597 | 92 % of HIV pol 589-597 at 100 µM | 17 % of HIV pol 589-597 at 100 µM | 2 % of HIV pol 589-597 at 100 µM | 
ILNSLSLLL [MS4A1-B41] |  | 2.45 | 0.3 ratio to HIV pol 589-597 |  |  |  | 
LMFGAPALV [TNFRSF13C-B1] | 1 % of HIV pol 589-597 at 100 µM | 4.35 | 1.1 ratio to HIV pol 589-597 | 90 % of HIV pol 589-597 at 100 µM | 37 % of HIV pol 589-597 at 100 µM | 7 % of HIV pol 589-597 at 100 µM | 
WVFEHPETL [CD22-H1] | 2 % of HIV pol 589-597 at 100 µM | 1.97 | 5.3 ratio to HIV pol 589-597 | 158 % of HIV pol 589-597 at 100 µM | 71 % of HIV pol 589-597 at 100 µM | 10 % of HIV pol 589-597 at 100 µM | 
ILPGLLFGL [TNFRSF13C-B31] | 0 % of HIV pol 589-597 at 100 µM | 1.6 | 0.4 ratio to HIV pol 589-597 | 104 % of HIV pol 589-597 at 100 µM | 71.9 % of HIV pol 589-597 at 100 µM | 1.5 % of HIV pol 589-597 at 100 µM | 
ILIPAGIYL [MS4A1-B3] | 1.9 % of HIV pol 589-597 at 100 µM | 0.7 | 0.1 ratio to HIV pol 589-597 | 88.8 % of HIV pol 589-597 at 100 µM | 87.8 % of HIV pol 589-597 at 100 µM | 17.8 % of HIV pol 589-597 at 100 µM | 
FMPGLLFGA [TNFRSF13C-B33] | 0 % of HIV pol 589-597 at 100 µM | 13.2 | 3.5 ratio to HIV pol 589-597 | 99.6 % of HIV pol 589-597 at 100 µM | 15.5 % of HIV pol 589-597 at 100 µM | 1.3 % of HIV pol 589-597 at 100 µM | 
YLAYLIFEL [CD19-B6] | 0 % of HIV pol 589-597 at 100 µM | 3.76 | 0.4 ratio to HIV pol 589-597 |  | 52.5 % of HIV pol 589-597 at 100 µM | 5.4 % of HIV pol 589-597 at 100 µM | 
GMAFVPLLL (also called CD37-B11i) [CD37-B11] | 0 % of HIV pol 589-597 at 100 µM | 2.3 | 3 ratio to HIV pol 589-597 | 57.8 % of HIV pol 589-597 at 100 µM | 48.9 % of HIV pol 589-597 at 100 µM | 1.6 % of HIV pol 589-597 at 100 µM | 
FLAFVPLQL (also called CD37-B1i) [CD37-B1] | 5 % of HIV pol 589-597 at 100 µM | 0.65 | 1.6 ratio to HIV pol 589-597 | 157 % of HIV pol 589-597 at 100 µM | 106 % of HIV pol 589-597 at 100 µM | 35 % of HIV pol 589-597 at 100 µM | 
IALGGLLMI [MS4A1-H1] | 0 % of HIV pol 589-597 at 100 µM |  |  |  | 1.9 % of HIV pol 589-597 at 100 µM | 0.7 % of HIV pol 589-597 at 100 µM | 
LQMGGFYLL [CD19-B7] | 6 % of HIV pol 589-597 at 100 µM | 49.6 | 6.8 ratio to HIV pol 589-597 | 31.8 % of HIV pol 589-597 at 100 µM | 4.5 % of HIV pol 589-597 at 100 µM | 4.8 % of HIV pol 589-597 at 100 µM | 
YLFLGILSL [MS4A1-B5] | 0 % of HIV pol 589-597 at 100 µM | 6.77 | 0.7 ratio to HIV pol 589-597 |  | 29.8 % of HIV pol 589-597 at 100 µM | 0.2 % of HIV pol 589-597 at 100 µM | 
FLLFLTPME [CD19-H2] |  |  |  | 7 % of HIV pol 589-597 at 100 µM | 7 % of HIV pol 589-597 at 100 µM | 3 % of HIV pol 589-597 at 100 µM | 
PLPGLLFGA [TNFRSF13C-H3] | 0 % of HIV pol 589-597 at 100 µM |  |  | 8.4 % of HIV pol 589-597 at 100 µM | 0 % of HIV pol 589-597 at 100 µM | 0 % of HIV pol 589-597 at 100 µM | 
LIFEHPERV [CD22-B12] |  |  |  |  |  |  | binds
IMNSLSLFA [MS4A1-H4] | 0 % of HIV pol 589-597 at 100 µM |  |  | 13.4 % of HIV pol 589-597 at 100 µM | 2.6 % of HIV pol 589-597 at 100 µM | 0.3 % of HIV pol 589-597 at 100 µM | 
TLLFLTPML [CD19-B2] | 12 % of HIV pol 589-597 at 100 µM | 0.38 | 1 ratio to HIV pol 589-597 |  | 114 % of HIV pol 589-597 at 100 µM | 41 % of HIV pol 589-597 at 100 µM | 
LLVGILHLV [CD19-B1] |  | 3.7 | 0.7 ratio to HIV pol 589-597 | 93 % of HIV pol 589-597 at 100 µM | 40 % of HIV pol 589-597 at 100 µM | 8 % of HIV pol 589-597 at 100 µM | 
YILGGLLMV [MS4A1-B12] | 1.2 % of HIV pol 589-597 at 100 µM | 31.2 | 3.5 ratio to HIV pol 589-597 | 42 % of HIV pol 589-597 at 100 µM | 7.6 % of HIV pol 589-597 at 100 µM | 1.1 % of HIV pol 589-597 at 100 µM | 
YVFEHPELL [CD22-B11] | 6.4 % of HIV pol 589-597 at 100 µM | 0.2 | 0.5 ratio to HIV pol 589-597 | 141 % of HIV pol 589-597 at 100 µM | 124 % of HIV pol 589-597 at 100 µM | 60.5 % of HIV pol 589-597 at 100 µM | 
LMIPAGIYA [MS4A1-H3] | 0 % of HIV pol 589-597 at 100 µM | 4.83 | 0.5 ratio to HIV pol 589-597 | 92.6 % of HIV pol 589-597 at 100 µM | 35.7 % of HIV pol 589-597 at 100 µM | 0.9 % of HIV pol 589-597 at 100 µM | 
TLAYLIFCL [CD19-H6] | 0 % of HIV pol 589-597 at 100 µM | 4.98 | 0.5 ratio to HIV pol 589-597 |  | 39.6 % of HIV pol 589-597 at 100 µM | 4.1 % of HIV pol 589-597 at 100 µM | 
SLVGILHLQ [CD19-H1] | 1 % of HIV pol 589-597 at 100 µM |  |  | 0 % of HIV pol 589-597 at 100 µM | 1 % of HIV pol 589-597 at 100 µM | 0 % of HIV pol 589-597 at 100 µM | 
